# Experimental data: patent publication US20040191821
# Biological target: MuA transposase (residues 77-663) (Bacteriophage Mu) (UniProt P07636)
# Settings: 91/92 nt products; mismatch at center of 5 bp target; 10 mM MgCl2, 30 C; scale: % of strand transfer products at mismatch
# Chain of MuA transposase (residues 77-663) (Bacteriophage Mu) (P07636 77-663): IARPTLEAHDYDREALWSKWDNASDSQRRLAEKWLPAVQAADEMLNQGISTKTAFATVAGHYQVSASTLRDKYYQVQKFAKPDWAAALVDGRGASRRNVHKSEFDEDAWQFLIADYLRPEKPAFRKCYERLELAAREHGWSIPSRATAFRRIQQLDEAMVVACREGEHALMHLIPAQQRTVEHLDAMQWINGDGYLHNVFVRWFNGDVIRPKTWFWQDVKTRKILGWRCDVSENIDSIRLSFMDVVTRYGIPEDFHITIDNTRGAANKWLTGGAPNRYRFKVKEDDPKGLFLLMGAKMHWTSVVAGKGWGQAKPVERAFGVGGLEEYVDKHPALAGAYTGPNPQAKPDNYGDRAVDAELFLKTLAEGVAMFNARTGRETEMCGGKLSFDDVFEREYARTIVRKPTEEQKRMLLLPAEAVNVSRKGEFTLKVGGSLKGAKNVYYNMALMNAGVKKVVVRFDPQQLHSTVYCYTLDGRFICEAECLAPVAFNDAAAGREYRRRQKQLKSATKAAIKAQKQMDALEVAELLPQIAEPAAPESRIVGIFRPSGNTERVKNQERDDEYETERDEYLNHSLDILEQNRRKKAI
sequence,measurement,value
CGTTCATTAGCACAATCACAGAAGACTAGAATACAACCGCACATAAGATCAGAAGTTAACTAGCACTAGTACTTGC (double strand) [single mismatch target 76 bp],activity,90
